Data published in patent US20220089698A1 (published 2022).
Residue numbers refer to the chain shown, from its start.

B1: 1.14.17-1 (antibody, human IgG1, kappa, V domains shown)
VH: QVQLLQSGAAVTKPGASVRVSCEASGYNIRDYFMHWVRQAPGQGLQWVGWINPKTGQPNNPRQFQGRVSLTRHASWDFDTFSAYMDLKALRSDDTAVYFCARQRSDYWDFDVWGSGTQVTVSS
VL: DIQMTQSPSSLSASVGDTVTITCQANGYLNWYQQRRGKAPKLLIYDGSKLERGVPSRFSGRRWGQEYNLTINNLQPEDIATYFCQVYEFFGPGTRLDLKR
B2: 1.31.1-1 (antibody, human IgG1, kappa)
heavy: QVQLVQSGAEVTKPGASVRVSCEASGYNIRDYFIHWWRQAPGQGLQWVGWINPKTGQPNNPRQFQGRVSLTRHASWDFDTFSFYMDLKALRSDDTATYFCARQRSDYWDFDVWGSGTQVTVSSASTKGPSVFPLAPSSKSTSGGTAALGCLVKDYFPEPVTVSWNSGALTSGVHTFPAVLQSSGLYSLSSVVTVPSSSLGTQTYICNVNHKPSNTKVDKKVEPKSCDKTHTCPPCPAPELLAGPDVFLFPPKPKDTLMISRTPEVTCVVVDVSHEDPEVKFNWYVDGVEVHNAKTKPREEQYNSTYRVVSVLTVLHQDWLNGKEYKCKVSNKALPLPEEKTISKAKGQPREPQVYTLPPSREEMTKNQVSLTCLVKGFYPSDIAVEWESNGQPENNYKTTPPVLDSDGSFFLYSKLTVDKSRWQQGNVFSCSVLHEALHSHYTQKSLSLSPGK
light: DIQMTQSPSSLSASVGDTVTITCQANGYLNWYQQRRGKAPKLLIYDGSKLERGVPSRFSGRRWGQEYNLTINNLQPEDIATYFCQVYEFVVPGTRLDLKRTVAAPSVFIFPPSDEQLKSGTASVVCLLNNFYPREAKVQWKVDNALQSGNSQESVTEQDSKDSTYSLSSTLTLSKADYEKHKVYACEVTHQGLSSPVTKSFNRGEC
B3: 1.32.1-1 (antibody, human IgG1, kappa)
heavy: B2 heavy with T97V, S105T
light: B2 light
B4: 1.33.1-1 (antibody, human IgG1, kappa)
heavy: B2 heavy with T12K, E23K, S69T
light: B2 light
B5: 1.34.1-1 (antibody, human IgG1, kappa)
heavy: B2 heavy with T12K, E23K, S69T, T97V, S105T
light: B2 light
B6: 1.35.1-1 (antibody, human IgG1, kappa)
heavy: B2 heavy with T12K, E23K, I34M, S69T, L70M, K88S, A89R, S105T, S115Q, Q118M
light: B2 light
B7: 1.36.1-1 (antibody, human IgG1, kappa)
heavy: QVQLVQSGAEVKKPGASVRVSCKASGYNIRDYFMHWWRQAPGQGLQWVGWINPKTGQPNNPRQFQGRVTMTRHASWDFDTFSAYMDLSRLRSDDTATYFCARQRTDYWDFDVWGQGTMVTVSSASTKGPSVFPLAPSSKSTSGGTAALGCLVKDYFPEPVTVSWNSGALTSGVHTFPAVLQSSGLYSLSSVVTVPSSSLGTQTYICNVNHKPSNTKVDKKVEPKSCDKTHTCPPCPAPELLAGPDVFLFPPKPKDTLMISRTPEVTCVVVDVSHEDPEVKFNWYVDGVEVHNAKTKPREEQYNSTYRVVSVLTVLHQDWLNGKEYKCKVSNKALPLPEEKTISKAKGQPREPQVYTLPPSREEMTKNQVSLTCLVKGFYPSDIAVEWESNGQPENNYKTTPPVLDSDGSFFLYSKLTVDKSRWQQGNVFSCSVLHEALHSHYTQKSLSLSPGK
light: B2 light
B8: 1.1.31-1 (antibody, human IgG1, kappa)
heavy: B2 heavy with V5L, E10A, T97V
light: B2 light with N68T, N72S, N73S, R95N
B9: 1.31.31-1 (antibody, human IgG1, kappa)
heavy: B2 heavy
light: B2 light with N68T, N72S, N73S, R95N
B10: 1.32.31-1 (antibody, human IgG1, kappa)
heavy: B2 heavy with T97V, S105T
light: B2 light with N68T, N72S, N73S, R95N
B11: 1.33.31-1 (antibody, human IgG1, kappa)
heavy: B2 heavy with T12K, E23K, S69T
light: B2 light with N68T, N72S, N73S, R95N
B12: 1.34.31-1 (antibody, human IgG1, kappa)
heavy: B2 heavy with T12K, E23K, S69T, T97V, S105T
light: B2 light with N68T, N72S, N73S, R95N
B13: 1.35.31-1 (antibody, human IgG1, kappa)
heavy: B7 heavy with A83F
light: B2 light with N68T, N72S, N73S, R95N
B14: 1.1.32-1 (antibody, human IgG1, kappa)
heavy: B2 heavy with V5L, E10A, T97V
light: B2 light with N68T, N72S, N73S, V91T
B15: 1.31.32-1 (antibody, human IgG1, kappa)
heavy: B2 heavy
light: B2 light with N68T, N72S, N73S, V91T
B16: 1.32.32-1 (antibody, human IgG1, kappa)
heavy: B2 heavy with T97V, S105T
light: B2 light with N68T, N72S, N73S, V91T
B17: 1.33.32-1 (antibody, human IgG1, kappa)
heavy: B2 heavy with T12K, E23K, S69T
light: B2 light with N68T, N72S, N73S, V91T
B18: 1.34.32-1 (antibody, human IgG1, kappa)
heavy: B2 heavy with T12K, E23K, S69T, T97V, S105T
light: B2 light with N68T, N72S, N73S, V91T
B19: 1.35.32-1 (antibody, human IgG1, kappa)
heavy: B7 heavy with A83F
light: B2 light with N68T, N72S, N73S, V91T
B20: 1.36.32-1 (antibody, human IgG1, kappa)
heavy: B7 heavy
light: B2 light with N68T, N72S, N73S, V91T
B21: 1.1.33-1 (antibody, human IgG1, kappa)
heavy: B2 heavy with V5L, E10A, T97V
light: B2 light with K49N, N68T, N72S, N73S, R95N, L98I
B22: 1.31.33-1 (antibody, human IgG1, kappa)
heavy: B2 heavy
light: B2 light with K49N, N68T, N72S, N73S, R95N, L98I
B23: 1.32.33-1 (antibody, human IgG1, kappa)
heavy: B2 heavy with T97V, S105T
light: B2 light with K49N, N68T, N72S, N73S, R95N, L98I
B24: 1.33.33-1 (antibody, human IgG1, kappa)
heavy: B2 heavy with T12K, E23K, S69T
light: B2 light with K49N, N68T, N72S, N73S, R95N, L98I
B25: 1.34.33-1 (antibody, human IgG1, kappa)
heavy: B2 heavy with T12K, E23K, S69T, T97V, S105T
light: B2 light with K49N, N68T, N72S, N73S, R95N, L98I
B26: 1.35.33-1 (antibody, human IgG1, kappa)
heavy: B7 heavy with A83F
light: B2 light with K49N, N68T, N72S, N73S, R95N, L98I
B27: 1.1.34-1 (antibody, human IgG1, kappa)
heavy: B2 heavy with V5L, E10A, T97V
light: B2 light with K49N, N68T, N72S, N73S, V91T, L98I

What was measured:
[1] = molecular target: HIV gp120 Bal (HIV); experiment: single-point ELISA; also: test concentration or dose not given here
[2] = molecular target: HIV gp120 CAAN (HIV); experiment: single-point ELISA; also: test concentration or dose not given here

| Binder | ELISA (A450) [1] [A450] | ELISA (A450) [2] [A450] |
| --- | --- | --- |
| B1 | 0.89 | 0.43 |
| B2 | 0.82 | 0.92 |
| B3 | 0.93 | 0.83 |
| B4 | 0.88 | 0.98 |
| B5 | 0.83 | 0.9 |
| B6 | 0.84 | 0.87 |
| B7 | 1.13 | 0.75 |
| B8 | 0.87 | 0.96 |
| B9 | 0.98 | 1.02 |
| B10 | 0.95 | 0.9 |
| B11 | 0.92 | 1.18 |
| B12 | 0.91 | 0.92 |
| B13 | 1.05 | 0.99 |
| B14 | 0.93 | 1.04 |
| B15 | 0.98 | 1.04 |
| B16 | 0.89 | 0.9 |
| B17 | 0.98 | 1.13 |
| B18 | 0.93 | 0.97 |
| B19 | 0.96 | 1.01 |
| B20 | 0.96 | 0.5 |
| B21 | 0.87 | 0.94 |
| B22 | 0.89 | 0.86 |
| B23 | 0.93 | 0.68 |
| B24 | 1.09 | 1.06 |
| B25 | 1.1 | 1.04 |
| B26 | 0.9 | 0.91 |
| B27 | 0.9 | 0.96 |
